The sequences below were run on Escherichia coli TOP10 (assay: shrunken log2 fold change of peptide-encoding DNA abundance (4.5 h post-induction vs induction); higher = less antimicrobial activity (less host growth inhibition)). Details: time post-induction: 4.5 h; library: site-saturation at positions 5, 18, 19, 20.
In the case of RRIRLRPPRLPRPRPRPTSHPRP, the “shrunken log2 fold change” value is reported as -0.0914.
For RRIRSRPPRLPRPRPRPQENPRP, the “shrunken log2 fold change” value was -0.0522.
In the case of RRIRHRPPRLPRPRPRPSPLPRP, the “shrunken log2 fold change” value is reported as -0.223.
In the case of RRIRSRPPRLPRPRPRPFAIPRP, the “shrunken log2 fold change” value is reported as -0.638.
In the case of RRIRERPPRLPRPRPRPFPWPRP, the “shrunken log2 fold change” value is reported as -0.0723.
RRIRERPPRLPRPRPRPAPCPRP was tested, and the “shrunken log2 fold change” value was 0.0086.
In the case of RRIRDRPPRLPRPRPRPCWMPRP, the “shrunken log2 fold change” value is reported as -0.0868.
RRIRDRPPRLPRPRPRPIATPRP was tested, and the “shrunken log2 fold change” value was -0.0393.
RRIRTRPPRLPRPRPRPMMIPRP was tested, and the “shrunken log2 fold change” value was 0.000458.
With RRIRRRPPRLPRPRPRPKAAPRP the “shrunken log2 fold change” value was 0.596.
With RRIRIRPPRLPRPRPRPCHHPRP the “shrunken log2 fold change” value was 0.0314.
RRIRARPPRLPRPRPRPASVPRP was tested, and the “shrunken log2 fold change” value was 0.261.
With RRIRLRPPRLPRPRPRPCPKPRP the “shrunken log2 fold change” value was 0.136.
With RRIRFRPPRLPRPRPRPHCVPRP the “shrunken log2 fold change” value was -0.216.
With RRIRTRPPRLPRPRPRPLTLPRP the “shrunken log2 fold change” value was -0.241.
RRIRRRPPRLPRPRPRPAMIPRP was tested, and the “shrunken log2 fold change” value was 0.0243.
With RRIRCRPPRLPRPRPRPHMFPRP the “shrunken log2 fold change” value was -0.348.
For RRIRCRPPRLPRPRPRPDYQPRP, the “shrunken log2 fold change” value was -0.447.
With RRIRYRPPRLPRPRPRPIWPPRP the “shrunken log2 fold change” value was -0.00922.
RRIRQRPPRLPRPRPRPPEIPRP was tested, and the “shrunken log2 fold change” value was -0.0671.
With RRIRYRPPRLPRPRPRPLWWPRP the “shrunken log2 fold change” value was -0.696.
RRIRERPPRLPRPRPRPPCFPRP was tested, and the “shrunken log2 fold change” value was -0.0819.
RRIRQRPPRLPRPRPRPKRTPRP was tested, and the “shrunken log2 fold change” value was 0.00512.
RRIRGRPPRLPRPRPRPTPDPRP was tested, and the “shrunken log2 fold change” value was 1.24.
With RRIRKRPPRLPRPRPRPYNKPRP the “shrunken log2 fold change” value was -0.626.
In the case of RRIRPRPPRLPRPRPRPTFTPRP, the “shrunken log2 fold change” value is reported as 0.101.
In the case of RRIRSRPPRLPRPRPRPTQPPRP, the “shrunken log2 fold change” value is reported as 0.215.
With RRIRRRPPRLPRPRPRPFIMPRP the “shrunken log2 fold change” value was -0.251.
In the case of RRIRSRPPRLPRPRPRPAMKPRP, the “shrunken log2 fold change” value is reported as 0.00274.
In the case of RRIRDRPPRLPRPRPRPNVEPRP, the “shrunken log2 fold change” value is reported as 0.119.
With RRIRGRPPRLPRPRPRPNNQPRP the “shrunken log2 fold change” value was -0.011.
RRIRVRPPRLPRPRPRPMSIPRP was tested, and the “shrunken log2 fold change” value was -0.306.
RRIRGRPPRLPRPRPRPSRGPRP was tested, and the “shrunken log2 fold change” value was 0.605.
For RRIRPRPPRLPRPRPRPSVPPRP, the “shrunken log2 fold change” value was -0.166.
For RRIRRRPPRLPRPRPRPLRNPRP, the “shrunken log2 fold change” value was 0.94.
RRIRLRPPRLPRPRPRPGLLPRP was tested, and the “shrunken log2 fold change” value was 0.0272.
RRIRDRPPRLPRPRPRPYYYPRP was tested, and the “shrunken log2 fold change” value was -1.11.
For RRIRHRPPRLPRPRPRPPEIPRP, the “shrunken log2 fold change” value was 0.0979.
With RRIRGRPPRLPRPRPRPNDSPRP the “shrunken log2 fold change” value was -0.0552.
For RRIRIRPPRLPRPRPRPAMGPRP, the “shrunken log2 fold change” value was 1.17.
In the case of RRIRNRPPRLPRPRPRPYDFPRP, the “shrunken log2 fold change” value is reported as 0.0143.
For RRIRERPPRLPRPRPRPAWMPRP, the “shrunken log2 fold change” value was 0.501.
With RRIRGRPPRLPRPRPRPQGKPRP the “shrunken log2 fold change” value was 0.0794.
For RRIRTRPPRLPRPRPRPMDTPRP, the “shrunken log2 fold change” value was 0.0257.
RRIRDRPPRLPRPRPRPEAQPRP was tested, and the “shrunken log2 fold change” value was 1.66.
In the case of RRIRARPPRLPRPRPRPEGGPRP, the “shrunken log2 fold change” value is reported as 0.872.
With RRIRVRPPRLPRPRPRPTKAPRP the “shrunken log2 fold change” value was -0.142.
With RRIRIRPPRLPRPRPRPMRLPRP the “shrunken log2 fold change” value was 0.0554.
In the case of RRIRQRPPRLPRPRPRPDQFPRP, the “shrunken log2 fold change” value is reported as 0.133.
With RRIRHRPPRLPRPRPRPDMFPRP the “shrunken log2 fold change” value was -0.0749.
With RRIRCRPPRLPRPRPRPPGMPRP the “shrunken log2 fold change” value was 0.326.
RRIRMRPPRLPRPRPRPMTSPRP was tested, and the “shrunken log2 fold change” value was 0.157.
With RRIRHRPPRLPRPRPRPRFKPRP the “shrunken log2 fold change” value was -0.153.
With RRIRWRPPRLPRPRPRPGPGPRP the “shrunken log2 fold change” value was 0.899.
RRIRFRPPRLPRPRPRPFHTPRP was tested, and the “shrunken log2 fold change” value was -0.561.
For RRIRLRPPRLPRPRPRPTWKPRP, the “shrunken log2 fold change” value was -0.06.
With RRIRCRPPRLPRPRPRPWDRPRP the “shrunken log2 fold change” value was -0.608.
For RRIRCRPPRLPRPRPRPKDEPRP, the “shrunken log2 fold change” value was 0.393.
For RRIRPRPPRLPRPRPRPWQTPRP, the “shrunken log2 fold change” value was -0.0715.
In the case of RRIRNRPPRLPRPRPRPIARPRP, the “shrunken log2 fold change” value is reported as -0.0163.
For RRIRWRPPRLPRPRPRPGESPRP, the “shrunken log2 fold change” value was 0.159.
RRIRWRPPRLPRPRPRPRQKPRP was tested, and the “shrunken log2 fold change” value was 0.0761.
With RRIRERPPRLPRPRPRPRTIPRP the “shrunken log2 fold change” value was -0.337.
In the case of RRIRFRPPRLPRPRPRPQFPPRP, the “shrunken log2 fold change” value is reported as -0.16.
With RRIRRRPPRLPRPRPRPIDCPRP the “shrunken log2 fold change” value was 0.00203.
For RRIRQRPPRLPRPRPRPFPNPRP, the “shrunken log2 fold change” value was -0.0586.
In the case of RRIRTRPPRLPRPRPRPQLSPRP, the “shrunken log2 fold change” value is reported as 0.212.
In the case of RRIRVRPPRLPRPRPRPMFRPRP, the “shrunken log2 fold change” value is reported as -0.048.
With RRIRGRPPRLPRPRPRPWWSPRP the “shrunken log2 fold change” value was 0.00664.
With RRIRKRPPRLPRPRPRPLCNPRP the “shrunken log2 fold change” value was 1.06.
RRIRHRPPRLPRPRPRPHTEPRP was tested, and the “shrunken log2 fold change” value was -0.406.
With RRIRSRPPRLPRPRPRPIVQPRP the “shrunken log2 fold change” value was 0.144.
In the case of RRIRNRPPRLPRPRPRPQFDPRP, the “shrunken log2 fold change” value is reported as 0.152.
For RRIRSRPPRLPRPRPRPYECPRP, the “shrunken log2 fold change” value was -0.356.
With RRIRNRPPRLPRPRPRPKDMPRP the “shrunken log2 fold change” value was -0.0164.
RRIRDRPPRLPRPRPRPHISPRP was tested, and the “shrunken log2 fold change” value was -0.0535.
With RRIRGRPPRLPRPRPRPSDWPRP the “shrunken log2 fold change” value was 0.251.
In the case of RRIRLRPPRLPRPRPRPVMEPRP, the “shrunken log2 fold change” value is reported as 0.233.
In the case of RRIRHRPPRLPRPRPRPMAEPRP, the “shrunken log2 fold change” value is reported as -0.165.
RRIRHRPPRLPRPRPRPEKEPRP was tested, and the “shrunken log2 fold change” value was -0.00451.
For RRIRVRPPRLPRPRPRPSEAPRP, the “shrunken log2 fold change” value was 0.0122.
With RRIRHRPPRLPRPRPRPFQLPRP the “shrunken log2 fold change” value was -0.0386.
RRIRARPPRLPRPRPRPCAYPRP was tested, and the “shrunken log2 fold change” value was -0.399.
For RRIRGRPPRLPRPRPRPYDMPRP, the “shrunken log2 fold change” value was -0.0187.
With RRIRGRPPRLPRPRPRPRLMPRP the “shrunken log2 fold change” value was 0.617.
In the case of RRIRPRPPRLPRPRPRPICYPRP, the “shrunken log2 fold change” value is reported as -0.407.
In the case of RRIRIRPPRLPRPRPRPRRRPRP, the “shrunken log2 fold change” value is reported as 0.169.
With RRIRTRPPRLPRPRPRPAKLPRP the “shrunken log2 fold change” value was 0.108.
For RRIRARPPRLPRPRPRPHQWPRP, the “shrunken log2 fold change” value was 0.137.
RRIRQRPPRLPRPRPRPDTWPRP was tested, and the “shrunken log2 fold change” value was -0.197.
For RRIRWRPPRLPRPRPRPHNLPRP, the “shrunken log2 fold change” value was -0.414.
RRIRTRPPRLPRPRPRPYIIPRP was tested, and the “shrunken log2 fold change” value was -0.59.
RRIRERPPRLPRPRPRPLNTPRP was tested, and the “shrunken log2 fold change” value was -1.11.
RRIRKRPPRLPRPRPRPSDDPRP was tested, and the “shrunken log2 fold change” value was 0.154.
RRIRTRPPRLPRPRPRPHRKPRP was tested, and the “shrunken log2 fold change” value was -0.0762.
RRIRQRPPRLPRPRPRPTMAPRP was tested, and the “shrunken log2 fold change” value was 0.216.
For RRIRNRPPRLPRPRPRPVKKPRP, the “shrunken log2 fold change” value was -0.0236.
For RRIRVRPPRLPRPRPRPANQPRP, the “shrunken log2 fold change” value was -0.186.
For RRIRRRPPRLPRPRPRPVCGPRP, the “shrunken log2 fold change” value was 0.75.
With RRIRDRPPRLPRPRPRPWFVPRP the “shrunken log2 fold change” value was -0.18.
With RRIRYRPPRLPRPRPRPNLYPRP the “shrunken log2 fold change” value was -0.658.
RRIRTRPPRLPRPRPRPELRPRP was tested, and the “shrunken log2 fold change” value was 0.225.
With RRIRKRPPRLPRPRPRPDWWPRP the “shrunken log2 fold change” value was -0.0103.
For RRIRKRPPRLPRPRPRPQYYPRP, the “shrunken log2 fold change” value was -0.359.
RRIRQRPPRLPRPRPRPNHPPRP was tested, and the “shrunken log2 fold change” value was -0.249.
With RRIRWRPPRLPRPRPRPQREPRP the “shrunken log2 fold change” value was 0.0297.
RRIRCRPPRLPRPRPRPYVMPRP was tested, and the “shrunken log2 fold change” value was -0.633.
With RRIRARPPRLPRPRPRPSNNPRP the “shrunken log2 fold change” value was -0.376.
With RRIRKRPPRLPRPRPRPVFRPRP the “shrunken log2 fold change” value was 0.278.
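Also: peptides expressed intracellularly from a pBAD plasmid library in pooled LB shake-flask culture, induced with 0.3% L-arabinose, DNA abundance read by NGS, three biological replicates, DESeq2 with apeglm shrinkage.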
